Measurements published in article PMC10698503 (Molecular Systems Biology, 2023).
Non-standard residues stand in square brackets, D forms with d. No end group written: not given here. pS = N[C@@H](COP(=O)(O)O)C(=O)O

Legend:
[1] = target: T1, His-PP1γ (UniProt P36873 1-323); assay: ITC; peptide (approximately 450 µM, syringe) titrated into PP1γ (~35 µM, cell); 25°C; 50 mM sodium phosphate, 150 mM NaCl, 0.5 mM TCEP, pH 7.5; single-site model; conditions: both partners purified
T1 construct: PP1γ, catalytic subunit of protein phosphatase 1, gamma isoform; D1:p17 gives a molecular weight of 36965 Da for PP1; also called PP1g
T1 sequence (P36873 whole entry, canonical isoform): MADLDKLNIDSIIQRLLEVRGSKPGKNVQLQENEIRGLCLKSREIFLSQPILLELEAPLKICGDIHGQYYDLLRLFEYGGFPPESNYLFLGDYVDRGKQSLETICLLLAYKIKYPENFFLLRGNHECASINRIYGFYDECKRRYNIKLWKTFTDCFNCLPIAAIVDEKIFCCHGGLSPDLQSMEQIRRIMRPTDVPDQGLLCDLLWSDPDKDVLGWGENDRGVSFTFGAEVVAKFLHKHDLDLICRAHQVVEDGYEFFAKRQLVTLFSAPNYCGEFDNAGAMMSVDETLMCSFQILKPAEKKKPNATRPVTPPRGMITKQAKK

[2] = target: His-PP1γ (UniProt P36873 1-323); assay: as above; conditions: both partners purified
Target sequence in this assay (P36873 whole entry, canonical isoform): as above

Binder | Kd [1] | Kd [2]
PRRSPRISFFLEKENEPPGREW (Sororin (CDCA5) 76-96 by the label; also called CDCA5; source: synthetic peptide, bought: Peptide 2.0 Inc) [Sororin 76-96 peptide PRRSPRISFFLEKENEPPGREW] | 2530 ± 110 nM | 
RRSPRI[pS]FFLEKENEW [Sororin 73-91 pS83 peptide RRSPRI(pS)FFLEKENEW] |  | 1360 ± 10 nM

More lines, in order of falling Kd [1], values ahead:

Kd [1] | Kd [2] | Binder
190 ± 10 nM |  | AKNSRVTFSEDDEIW [Nipp1 197-209 peptide AKNSRVTFSEDDEIW]
120 ± 10 nM |  | KLNSKRVSFKLPKDQW (KNL1 (CASC5) 1441-1455 by the label; also called CASC5; source: synthetic peptide, bought: Peptide 2.0 Inc) [KNL1 1441-1455 peptide KLNSKRVSFKLPKDQW]
